From US20040102370A1 (IMPERIAL INNOVATIONS, published 2004)
Values joined by “and” are separate entries in the source; they are usually repeats but may differ in a detail not shown here. Equal entries are not always repeated. No end group written: not given here.

B1: Peptide D: Acetyl-EGMEGM-amide (peptide)
peptide: Ac-EGMEGM-NH2
B2: Peptide B: Acetyl-DRVE-amide (peptide)
peptide: Ac-DRVE-NH2
B3: Peptide F: Acetyl-DAVEPYSSTA-amide (peptide)
peptide: Ac-DAVEPYSSTA-NH2
B4: Peptide A(d): [{Ac-DRVEPYSSTA}2-K]2-K-OH (peptide)
peptide: Ac-DRVEPYSSTA
chain: Lys-OH
modifications: also: four copies of chain 1 on a branched core of three lysines (two Lys on α- and ε-amines of C-terminal Lys)

Target: FGF receptors
Experiment: cell-based or functional assay

Binder | peptide concentration giving maximal effect in the neurite outgrowth assay
B1 | 63 µg/ml and 100 µM
B2 | 75 µg/ml and 150 µM
B3 | 100 µg/ml and 100 µM
B4 | ~0.4 µM
